B1: JS011-phage3 (antibody, V domains shown)
VH: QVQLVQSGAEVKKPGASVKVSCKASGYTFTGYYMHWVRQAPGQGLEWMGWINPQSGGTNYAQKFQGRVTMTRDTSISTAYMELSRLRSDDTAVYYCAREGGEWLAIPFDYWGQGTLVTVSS
VL: ELELTQPPSVSVSPGQTASITCSADKLGDKYASWYQQKPGQSPVLVLYEDSKRPSGIPERISGSNSGNTATLTIRGTQPMDEADYYCQTWDTNTVLFGGGTRLTVL
B2: JS011-phage6 (antibody, V domains shown)
VH: QVQLVQSGAEVKKPGASVKVSCKASGYTFTGQYIHWARQAPGQGLEWMGWINPNSGGTNYAQKFQGRVTMTRDTSISTAYMELSRLRSDDTAVYYCARDKAGADYWGQGTLVTVSS
VL: ELALTQPPSVSGSPGQSITISCTGTSSDIGGYDYVSWYQQYPGKAPKLMISGVSNRPSGVSNRFSGSKSGNTASLIISGLQAEDEGDYYCSSYTSRSTRWVFGGGTKLTVL
B3: Urelumab (antibody, V domains shown)
VH: QVQLQQWGAGLLKPSETLSLTCAVYGGSFSGYYWSWIRQSPEKGLEWIGEINHGGYVTYNPSLESRVTISVDTSKNQFSLKLSSVTAADTAVYYCARDYGPGNYDWYFDLWGRGTLVTVSS
VL: EIVLTQSPATLSLSPGERATLSCRASQSVSSYLAWYQQKPGQAPRLLIYDASNRATGIPARFSGSGSGTDFTLTISSLEPEDFAVYYCQQRSNWPPALTFGGGTKVEIK

What was measured:
[1] = target: 4-1BB on the surface of Jurkat NFKB 4-1BB cells (UniProt Q07011 24-255, limits assumed); assay: cell-based or functional assay
[2] = target: T1, 含有His标签的鼠4-1BB (mouse 4-1BB with His tag, Sino Biological 50811-M08H) (mouse, UniProt P20334 24-187); assay: ELISA, His-tagged mouse 4-1BB coated at 1.0 ug/mL, antibody titrated, anti-human IgG4 Fc HRP detection
T1 construct: Bought protein; Coated on the ELISA plate at 1.0 ug/mL; not shown: His tag
T1 sequence (looked up): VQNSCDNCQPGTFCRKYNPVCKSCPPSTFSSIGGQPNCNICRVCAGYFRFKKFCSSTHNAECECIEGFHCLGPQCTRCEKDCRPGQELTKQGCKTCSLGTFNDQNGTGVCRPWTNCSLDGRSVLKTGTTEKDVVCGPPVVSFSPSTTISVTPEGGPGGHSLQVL

Sequence of 4-1BB on the surface of Jurkat NFKB 4-1BB cells (Q07011 24-255 limits assumed): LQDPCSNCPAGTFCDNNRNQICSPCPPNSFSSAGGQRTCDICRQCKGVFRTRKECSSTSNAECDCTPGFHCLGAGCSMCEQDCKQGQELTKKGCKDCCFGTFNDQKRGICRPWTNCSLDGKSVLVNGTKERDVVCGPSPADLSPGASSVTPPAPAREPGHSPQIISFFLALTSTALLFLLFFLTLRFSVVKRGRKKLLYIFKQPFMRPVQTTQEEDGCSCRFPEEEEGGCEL

Binder	EC50, luciferase reporter (RLU), Raji / Jurkat NFKB 4-1BB two-cell system [1] [µg/mL]	EC50, luciferase reporter (RLU), Raji / Jurkat NFKB (4-1BB low expression) two-cell system [1] [µg/mL]	EC50, luciferase reporter (RLU), THP-1 / Jurkat NFKB 4-1BB two-cell system [1] [µg/mL]	binding result [2]
B1	9.45	9.45	0.00664	–
B2	2.71	–	0.283	no binding (tested: 1μg/ml起始)
B3	7.24	86	219	–

From patent CN116199778A (SHANGHAI JUNSHI BIOSCIENCES CO LTD; JUNMENG BIOSCIENCES CO …, dated 2023)
